The chains are these.
B1: D010 (antibody, V domains shown)
VH: EVQLVESGGGLVQPGRSLRLSCAAFGFTFDDYAMHWVRQAPGKGLEWVSGISWNSGSIGYADSVKGRFTISRDNAKNSLYLQMNSLRAEDTALYYCAKDITFRDGYPGAVDYWGQGTLVTVSS
VL: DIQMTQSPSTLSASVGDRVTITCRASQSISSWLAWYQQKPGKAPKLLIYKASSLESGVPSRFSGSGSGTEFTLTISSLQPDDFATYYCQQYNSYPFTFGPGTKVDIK
B2: D142 (antibody, V domains shown)
VH: QVQLVESGGGVVQPGRSLRLSCAASGFTFSSYGMHWVRQAPGKGLEWVAVISYDGSNKYYADSVKGRFTISRDNSKNTLYLQMNSLRAEDTAVYYCAKKPTMYYYDSSGYYYFDYWGQGTLVTVSS
VL: QFVLTQPPSVSGAPGQRVTISCTGSSSNIGAGYDVHWYQQLPGTAPKLLIYGNSNRPSGVPDRFSGSKSGTSASLAITGLQAEDEADYYCQSYDSSLSGYVFGTGTKVTVL
B3: D180 (antibody, V domains shown)
VH: EVQLVESGGGLVQPGGTLRLSCEASGFAFSTFWMTWVRQAPGKGLEWVANIKQDGSEKYYVDSVKGRFTISRDNAKNSLYLQMNSLRAEDTAVYYCASRSIVVAGTDYWGQGTLVTVSS
VL: not shown
B4: D016 (antibody, V domains shown)
VH: EVQLVESGGGLVQPGRSLRLSCAASGFTFDDYAMHWVRQAPGKGLEWVSGISWNSGSIGYADSVKGRFTISRDNAKNSLYLQMNSLRAEDMALYYCAKDAGIAAVNWYFDLWGRGTLVTVSS
VL: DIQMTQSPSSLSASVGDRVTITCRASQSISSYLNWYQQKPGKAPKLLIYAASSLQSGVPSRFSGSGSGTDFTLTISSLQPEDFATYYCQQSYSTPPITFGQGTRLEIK
B5: C2694 (antibody, V domains shown)
VH: EVQLVESGGGLVQPGRSLRLSCAASGFTFDDYAMHWVRQAPGKGLEWVSGISWNSGSIGYADSVKGRFTISRDNAKNSLYLQMNSLRAEDTALYYCAKDSLLWYDSSGYYHYYYYGMDVWGQGTTVTVSS
VL: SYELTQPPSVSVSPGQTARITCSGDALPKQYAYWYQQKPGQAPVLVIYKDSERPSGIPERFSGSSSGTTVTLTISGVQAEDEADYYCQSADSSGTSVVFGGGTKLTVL
B6: D161 (antibody, V domains shown)
VH: EVQLLESGGGLVQPGGSLRLSCAASGFTFSSYAMSWVRQAPGKGLEWVSAISGSGGSTSYADSVKGRFTISRDNSKNTLYLQMNSLRVEDTAVYYCAKGPRVTTEYFEYWGQGTLVTVSS
VL: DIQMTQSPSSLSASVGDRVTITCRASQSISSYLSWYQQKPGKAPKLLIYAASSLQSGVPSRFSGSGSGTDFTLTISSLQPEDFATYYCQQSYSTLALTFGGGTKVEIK
B7: D021 (antibody, V domains shown)
VH: QVQLVESGGGVVQPGRSLRLSCAASGFTFSSYGMHWVRQAPGKGLEWVAVISYDGSNKYYADSVKGRFTISRDNSKNTLYLQMNSLRAEDTAVYYCAKAGQYGDYTHSGDYWGQGTLVTVSS
VL: DIQMTQSPSSLSASVGDRVTITCQASQDISNYLNWYQQKPGKAPKLLIYDASNLETGVPSRFSGSGSGTDFTFTISSLQPEDIATYYCQQYDNLPIAFGQGTRLEIK
B8: D052 (antibody, V domains shown)
VH: EVQLVESGGGLVQPGGSLRLSCAASGFTFSSYDMHWVRQATGKGLEWVSAIGTAGDTYYPGSVKGRFTISRENAKNSLYLQMNSLRAGDTAVYYCARVGYSLYGDYKSYWYFDLWGRGTLVTVSS
VL: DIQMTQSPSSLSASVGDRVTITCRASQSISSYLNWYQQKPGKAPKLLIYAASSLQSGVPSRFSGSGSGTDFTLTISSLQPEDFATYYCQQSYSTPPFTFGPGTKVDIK
B9: D163 (antibody, V domains shown)
VH: QVQLVQSGAEVKKPGASVKVSCKASGYTFTSYYMHWVRQAPGQGLEWMGIINPSGGSTSYAQKFQGRVTMTRDTSTSTVYMELSSLRSEDTAVYYCARDFSLIPATAMVLDYWGQGTLVTVSS
VL: DIQMTQSPVSLSASVGDRVTITCRASQSISSWLAWYQQKPGKAPKLLIYKASSLESGVPSRFSGSGSGTEFTLTISSLQPDDFATYYCQQYNSYASFGQGTKVEIK
B10: D055 (antibody, V domains shown)
VH: EVQLVESGGGLVQPGGSLRLSCAASGFTFSSYDMHWVRQATGKGLEWVSAIGTAGDTYYPGSVKGRFTISRENAKNSLYLQMNSLRAGDTAVYYCARGAMVRGVIMVFDYWGQGTLVTVSS
VL: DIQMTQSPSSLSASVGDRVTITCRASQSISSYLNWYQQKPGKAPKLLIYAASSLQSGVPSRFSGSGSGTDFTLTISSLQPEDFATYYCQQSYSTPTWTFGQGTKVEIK
B11: D097 (antibody, V domains shown)
VH: EVQLVQSGAEVKKPGESLKISCKGSGYSFTSYWIGWVRQMPGKGLEWMGIIYPGDSDTRYSPSFQGQVTISADKSISTAYLQWSSLKASDTAMYYCARLGDAGAFDIWGQGTMVTVSS
VL: QSVLTQPPSVSGAPGQRVTISCTGSSSNIGAGYDVHWYQQLPGTAPKLLIYGNSNRPSGVPDRFSGSKSGTSASLAITGLQAEDEADYYCQSYDSSLSGSKVFGGGTKLTVL
B12: D105 (antibody, V domains shown)
VH: QVQLQQWGAGLLKPSETLSLTCAVFGGSFSGYYWSWIRQPPGKGLEWIGEINHSGSTNYNPSLKSRVTLSVDTSKNQFSLELSSVTAADTAVYYCARVGPILFDYWGQGTLVTVSS
VL: QFVLTQPPSVSAAPGQKVTISCSGSSSNIGNNYVSWFQQLPGTAPKLLIYDNNMRPSRIPDRFSGSKSGTSATLGITGLQTGDEADYYCGTWDSSLSSVVFGGGTKLTVL
B13: D023 (antibody, V domains shown)
VH: EVQLVQSGAEVKKPGESLKISCKGSGYSFTSYWIGWVRQMPGKGLEWMGIIYPGDSDTRYSPSFQGQVTISADKSISTAYLQWSSLKASDTAMYYCAISYSGSYSGAFDIWGQGTMVTVSS
VL: not shown
B14: D182 (antibody, V domains shown)
VH: QVQLVESGGGVVQPGRSLRLSCAASGFTFSSYGMHWVRQAPGKGLEWVAVISYDGSNKYYADSVKGRFTISRDNSKNTLYLQMNSLRAEDTAVYYCAKATVLMVYAGFDYWGQGTLVTVSS
VL: NFMLTQPHSVSESPGKTVTISCTGSSGSIASNYVQWYQQRPGSAPTTVIYEDNQRPSGVPDRFSGSIDSSSNSASLTISGLKTEDEADYYCQSYDSSNRWVFGGGTKLTVL
B15: D123 (antibody, V domains shown)
VH: EVQLVESGGGLVQPGRSLRLSCAASGFIFDDYAMHWVRQVPGKGLEWVSGISWNGGIIGQADSVKGRFTISRDNAKNSLYLQMNNLRAEDTALYFCTKDVGPGSPNYFDSWGQGTLVTVSS
VL: DIQMTQSPSTLSASVGDRVTITCRASQSISSWLAWYQQKPGKAPKFLIYKTSNLENGVPSRFSGSGSGTEFTLTISSLQPDDFATYFCQEYITNSRTFGQGTRLEIK
B16: D071 (antibody, V domains shown)
VH: EVQLVESGGGLVQPGRSLRLSCTASGFTFGDYAMSWFRQAPGKGLEWLGFIKSKSYGGTTEYAASVKGRFTISREDSKSIAYLQMNSLKTEDTAVYYCTRTIFGVVHFDYWGQGTLVTVSS
VL: SYVLTQPPSVSVAPGKTARITCERNNIGSKSVHWYQQKPGRAPVLVIYYDSDRPSGIPERFSGSNSENTATLTISRVEAGDEADYYCQVWNSSSDHPVFGGGTKLTVL
B17: D132 (antibody, V domains shown)
VH: EVQLVESGGGLVQPGRSLRLSCAASGFTFDDYAMHWVRQAPGKGLEWVSGISWNSGSIGYADSVKGRFTISRDNAKNSLYLQMNSLRNDDTALYYCAKGRIGGNYYLLDYWGQGTLVTVSS
VL: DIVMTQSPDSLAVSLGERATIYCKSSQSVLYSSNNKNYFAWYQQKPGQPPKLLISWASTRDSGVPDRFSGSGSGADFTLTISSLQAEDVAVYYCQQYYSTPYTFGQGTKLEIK
B18: D033 (antibody, V domains shown)
VH: QVQLVESGGGVVQPGRSLRLSCAASGFTFSYYAMHWVRQAPGKGLEWVAVISYDGINKYYADSVKGRFTFSRDNSKNTLYLQMNSLSAEDTAVYYCARPYCGGDCYRAPDYWGQGTLVTVSS
VL: QSVLTQEPSLTVSPGGTVTLTCGSSTGAVTSSHYPYWFQQKPGQVPRTLIYDTSNKHSWTPARFSGSLLGGKAALTLSGAQPEDEADYYCLLSYSGVRRVFGGGTKLTVL

18 molecules from paper PMC9876794 (2022) can be followed below.

The experiment addresses SARS-CoV-2 spike RBD (WT) (Severe acute respiratory syndrome …, UniProt P0DTC2). Briefly: ELISA. Further details: unit not given here. Background: ELISA stands for enzyme-linked immunosorbent assay.
With B1, the binding score was greater than 10000.

Take B2: the binding score was greater than 10000.

Take B3: the binding score came out at 8900.

As for B4, the binding score came out at 5250.

In the case of B5, the binding score is greater than 10000.

The molecule B6 yielded a binding score greater than 10000.

As for B7, the binding score came out at 4670.

Consider B8, for which the binding score came out at 49.

With B9, the binding score was greater than 10000.

B10 came in with a binding score of 9930.

B11 registered a binding score greater than 10000.

B12 yielded a binding score of 1340.

Turning to B13, the binding score is greater than 10000.

B14 displayed a binding score of 2500.

With B15, the binding score worked out at 7780.

The molecule B16 returned a binding score greater than 10000.

Consider B17, for which the binding score is 9490.

Molecule B18 displayed a binding score greater than 10000.
